The source of these data is PMC2880918.

Test [1] deals with Nucleosome Assembly Protein 1 (Nap1) (UniProt P25293). Nature of the test: FRET or BRET.
Test [2] deals with H2A–H2B dimer (Xenopus laevis) (UniProt P06897). Nature of the test: FRET or BRET.

In test [1], “(H3K56ac-H4)2 tetramer (from UniProt P62799 1-103) (complex)” displayed a Kd of 11 nM.

With “tetrasome with the fluorescent label on H4 (from UniProt P62799 1-103) (complex)”, the Kd in test [2] worked out at 35 nM. That is a double-digit nanomolar value.
